Reference: article PMC4612572

How the values were obtained:
[1] = target: p766-Gravin (human (endogenous in U2OS; cells of Figure 2E-H not stated)) (UniProt Q02952); experiment: proximity ligation; in situ PLA in U2OS cells stably expressing the mother centriole marker myc-centriolin; signal at the mother spindle pole relative to the daughter spindle pole
[2] = target: p766-Gravin (human (endogenous in U2OS; cells of Figure 2E-H not stated)) (UniProt Q02952); experiment: proximity ligation; in situ PLA with antibodies to p766-Gravin and to Aurora A or Plk1 in fixed cells at different stages of the cell cycle; integrated signal per cell normalised to interphase cells; n = 3 experiments
[3] = target: Gravin (human (endogenous in HEK293)) (UniProt Q02952)

fold PLA signal, mother against daughter spindle pole [1]	fold PLA signal, metaphase against interphase cells [2]	Kemptide (300 uM) phosphorylation (32P incorporation) in Gravin immune complexes isolated from mitotic lysates; share blocked by the Aurora A inhibitor VX-680 [3]	fold PLA puncta, mother against daughter spindle pole [1]	Molecule
2.35 fold	10.3 fold	–	–	polo-like kinase 1 (from UniProt P53350 1-603) (enzyme)
–	3.86 fold	33.5%	4.16 fold	Aurora A (enzyme) MDRSKENCISGPVKATAPVGGPKRVLVTQQFPCQNPLPVNSGQAQRVLCPSNSSQRIPLQAQKLVSSHKPVQNQKQKQLQATSVPHPVSRPLNNTQKSKQPLPSAPENNPEEELASKQKNEESKKRQWALEDFEIGRPLGKGKFGNVYLAREKQSKFILALKVLFKAQLEKAGVEHQLRREVEIQSHLRHPNILRLYGYFHDATRVYLILEYAPLGTVYRELQKLSKFDEQRTATYITELANALSYCHSKRVIHRDIKPENLLLGSAGELKIADFGWSVHAPSSRRTTLCGTLDYLPPEMIEGRMHDEKVDLWSLGVLCYEFLVGKPPFEANTYQETYKRISRVEFTFPDFVTEGARDLISRLLKHNPSQRPMLREVLEHPWITANSSKPSNCQNKESASKQS
